Source: publication doi:10.1101/2024.02.06.579105

Legend:
Assay in all cases: SEC
[1] = target: MalE-DmxA^E626A (M. xanthus)
[2] = target: MalE-DmxA^GAF×2 (M. xanthus)
[3] = target: MalE-DmxA^WT (M. xanthus)
[4] = target: MalE-DmxA^R615A (M. xanthus)

MalE-DmxA^E626A (domain or fragment)
stoichiometry N [1]: 2

MalE-DmxA^GAF×2 (domain or fragment)
stoichiometry N [2]: 2

MalE-DmxA^WT (domain or fragment)
stoichiometry N [3]: 2

MalE-DmxA^R615A (domain or fragment)
stoichiometry N [4]: 2
